Positions of bridges follow the written chain, without caps; N, C: chain ends. No end group written: not given here.
How the values were obtained:
[1] = Peptide fraction helicity by CD at 222 nm, peptide-only samples; type: physicochemical; settings: CD signal at 222 nm of peptide-only samples; pH 7.4 phosphate/KF/TCEP buffer; duplicate experiments
Experimental: (§1) The precise nature of the interaction between the cJun DBD and the rationally designed acidic domain of HW1 is unknown. HW1 was, therefore, iteratively truncated from the N terminus (HW2–6) to investigate the effect on cJun binding and cJun/TRE DNA antagonism (Table 1). Peptide fraction helicity (fH) was determined by quantifying the circular dichroism (CD) signal at 222 nm of peptide-only samples (Figure S1). Thermal denaturation experiments were then used to determine the melting temperature (Tm) of peptide-cJun heterodimers, which serves as an approximate measure of target engagement. CD was also used to investigate the functional activity of peptides in antagonizing the cJun/TRE DNA interaction. […] This provides a clear and direct measurement of the proportion of DNA bound to cJun. As antagonist peptide concentration was increased, the peak shifted to overlay with that of free TRE-DNA (Figure S4). For each peptide, the data were fit to a Hill equation to determine half-maximal inhibitory concentration (IC50) values, specific to these assay conditions, providing a clear comparative measure of antagonism. The same 60 amino acid cJun construct, encompassing the entire bZIP domain, was used for all experiments regardless of antagonist peptide length.

cJun = target: T1, cJun (Homo sapiens, UniProt P05412); experiment: CD thermal denaturation of peptide-cJun heterodimers (Tm); type: binding; settings: CD ellipticity at 222 nm, 1-90 °C; peptide (5 μM)/cJun (5 μM); 20 mM potassium phosphate, 150 mM potassium fluoride, 2 mM TCEP pH 7.4; two-state fit; duplicate experiments, ± one SD
T1 construct: The same 60 amino acid cJun construct, encompassing the entire bZIP domain, was used for all experiments
T1 sequence (P05412 252-315 limits assumed): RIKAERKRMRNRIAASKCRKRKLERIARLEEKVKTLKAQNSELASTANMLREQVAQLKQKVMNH
Experimental: as §1
Figure 2 Iterative N-terminal truncation of HingeW reduces cJun binding and antagonism (A) Thermal denaturation profiles for iteratively truncated peptide (5 μM)/cJun (5 μM) heterodimer samples. (B) CD antagonism data produced by monitoring the shift in a DNA specific peak to provide a direct readout of cJun-DNA binding. Peptides are added at the indicated concentrations to a pre-incubated mixture of cJun (20 μM) and TRE DNA (5 μM). Data points were averaged from triplicate experiments, and error bars indicate one SD. The data were fitted to a Hill equation to determine IC50 values. Some higher peptide concentration data points for HW6 and HW9 are not shown in this plot for clarity.

[2] = target: T2, cJun (60 amino acid construct encompassing the entire bZIP domain) (UniProt P05412 252-315); experiment: ITC; antagonist peptide at 25–200 μM injected into cJun at 2.5–20 μM in the cell, 25°C; 20 mM potassium phosphate, 150 mM potassium fluoride, 2 mM TCEP, pH 7.4; one-site binding model; two independent experiments; settings: both partners purified
T2 sequence (P05412 252-315): as the sequence (P05412 252-315 limits assumed) above

[3] = target: T2, cJun (60 amino acid construct …); experiment: cell-based or functional assay
[4] = target: T2, cJun (60 amino acid construct …); experiment: CD thermal denaturation; peptide (5 μM) with cJun (5 μM); ellipticity at 222 nm, 1°C to 90°C; 20 mM potassium phosphate, 150 mM potassium fluoride, 2 mM TCEP, pH 7.4; two-state fit gives the Tm of the peptide-cJun heterodimer; duplicate experiments; settings: both partners purified

Molecule | fH, peptide fraction helicity [1] [%] | Tm of peptide-cJun heterodimer (cJun) [°C] | Kd [2] [µM] | dH [2] [kcal/mol] | stoichiometry N [2] | IC50 CD: peptide added to pre-incubated cJun (20 μM) and TRE DNA (5 μM); blocks cJun/TRE DNA binding [3] [µM] | Tm of the peptide-cJun heterodimer [4] [°C]
Ac-LVVEEDVLEEEIEQLEERNYALRKEIEDLQKQLEDL-NH2 [HW12] | 43.0 | 62.1 ± 1.4 | – | – | – | – | –
Ac-LVVEEDVLEEEIEQLEEKNKALKDEIEDLQKQLEKLY-NH2 [HW10] | 45.6 | 64.3 ± 1.3 | – | – | – | – | –
Ac-LEKEAEELVVEEDVLEEEIEQLEERNYALRKEIEDLQKQLEKL-NH2 [HW3] | 38.3 | 67.9 ± 0.9 | – | – | – | – | –
EDVLEEEIEQLEERNYALRKEIEDLQKQLEKLGAP-NH2 (C-terminus assumed) [HW6] | 38.0 | 55.1 ± 1.1 | – | – | – | – | –
Ac-EAEELVVEEDVLEEEIEQLEEKNKALKDEIEDLQKQY-NH2 [HW26] | 36.0 | 56.2 ± 1.3 | – | – | – | – | –
HingeW (HW1) (TBS-selected 63-mer (acidic extension plus leucine zipper) with MAS N-cap and GAP C-cap; not shown: 6xHis, C-terminal, kept) peptide: MASLEQRAEELARENEELEKEAEELVVEEDVLEEEIEQLEERNYALRKEIEDLQKQLEKLGAP | – | – | 0.00021 | -31 | 0.93 | 13.4 | 71.2
Ac-EAEELVVEEDVLEEEIEQLEERNYALRKEIEDLQKQ-NH2 (truncation NΔ20 CΔ7 of HW1; source: synthetic peptide (Fmoc SPPS, RP-HPLC purified)) [HW8] | – | – | 1.1 | -5.99 | 0.95 | 82.1 | 57.1
Ac-EAEELVVEEKVLEDEIEQLEERNYALRKEIEDLQKQ-NH2 (lactam 10-14; SMILES CC[C@H](C)[C@H](NC(=O)[C@H](CCC(=O)O)NC(=O)[C@H](CCCCN)NC(=O)[C@H](CCCNC(=N)N)NC(=O)[C@H](CC(C)C)NC(=O)[C@H](C)NC(=O)[C@H](Cc1ccc(O)cc1)NC(=O)[C@H](CC(N)=O)NC(=O)[C@H](CCCNC(=N)N)NC(=O)[C@H](CCC(=O)O)NC(=O)[C@H](CCC(=O)O)NC(=O)[C@H](CC(C)C)NC(=O)[C@H](CCC(N)=O)NC(=O)[C@H](CCC(=O)O)NC(=O)[C@@H](NC(=O)[C@H](CCC(=O)O)NC(=O)[C@@H]1CC(=O)NCCCC[C@H](NC(=O)[C@H](CCC(=O)O)NC(=O)[C@H](CCC(=O)O)NC(=O)[C@@H](NC(=O)[C@@H](NC(=O)[C@H](CC(C)C)NC(=O)[C@H](CCC(=O)O)NC(=O)[C@H](CCC(=O)O)NC(=O)[C@H](C)NC(=O)[C@H](CCC(=O)O)NC(C)=O)C(C)C)C(C)C)C(=O)N[C@@H](C(C)C)C(=O)N[C@@H](CC(C)C)C(=O)N[C@@H](CCC(=O)O)C(=O)N1)[C@@H](C)CC)C(=O)N[C@@H](CCC(=O)O)C(=O)N[C@@H](CC(=O)O)C(=O)N[C@@H](CC(C)C)C(=O)N[C@@H](CCC(N)=O)C(=O)N[C@@H](CCCCN)C(=O)N[C@@H](CCC(N)=O)C(N)=O, cyclized form of the pair HW22/HW23; NΔ20 CΔ7; source: synthetic peptide (Fmoc SPPS, on-resin lactamization, RP-HPLC purified)) [HW23] | – | – | 0.0696 | -14.1 | 1.2 | 74.9 | 64
Ac-EAEELVVEEDVLEEEIEQLEERNYALRKEIKDLQDQ-NH2 (lactam 31-35; SMILES CC[C@H](C)[C@H](NC(=O)[C@H](CCC(=O)O)NC(=O)[C@H](CCCCN)NC(=O)[C@H](CCCNC(=N)N)NC(=O)[C@H](CC(C)C)NC(=O)[C@H](C)NC(=O)[C@H](Cc1ccc(O)cc1)NC(=O)[C@H](CC(N)=O)NC(=O)[C@H](CCCNC(=N)N)NC(=O)[C@H](CCC(=O)O)NC(=O)[C@H](CCC(=O)O)NC(=O)[C@H](CC(C)C)NC(=O)[C@H](CCC(N)=O)NC(=O)[C@H](CCC(=O)O)NC(=O)[C@@H](NC(=O)[C@H](CCC(=O)O)NC(=O)[C@H](CCC(=O)O)NC(=O)[C@H](CCC(=O)O)NC(=O)[C@H](CC(C)C)NC(=O)[C@@H](NC(=O)[C@H](CC(=O)O)NC(=O)[C@H](CCC(=O)O)NC(=O)[C@H](CCC(=O)O)NC(=O)[C@@H](NC(=O)[C@@H](NC(=O)[C@H](CC(C)C)NC(=O)[C@H](CCC(=O)O)NC(=O)[C@H](CCC(=O)O)NC(=O)[C@H](C)NC(=O)[C@H](CCC(=O)O)NC(C)=O)C(C)C)C(C)C)C(C)C)[C@@H](C)CC)C(=O)N[C@H]1CCCCNC(=O)C[C@@H](C(=O)N[C@@H](CCC(N)=O)C(N)=O)NC(=O)[C@H](CCC(N)=O)NC(=O)[C@H](CC(C)C)NC(=O)[C@H](CC(=O)O)NC1=O, cyclized form of the pair HW28/HW29; NΔ20 CΔ7; source: synthetic peptide (Fmoc SPPS, on-resin lactamization, RP-HPLC purified)) [HW29] | – | – | 0.0866 | -23.6 | 0.97 | 52.7 | 65
Ac-EAEELVVEEKVLEDEIEQLEERNYALRKEIKDLQDQ-NH2 (lactam 10-14, 31-35; SMILES CC[C@H](C)[C@H](NC(=O)[C@H](CCC(=O)O)NC(=O)[C@H](CCCCN)NC(=O)[C@H](CCCNC(=N)N)NC(=O)[C@H](CC(C)C)NC(=O)[C@H](C)NC(=O)[C@H](Cc1ccc(O)cc1)NC(=O)[C@H](CC(N)=O)NC(=O)[C@H](CCCNC(=N)N)NC(=O)[C@H](CCC(=O)O)NC(=O)[C@H](CCC(=O)O)NC(=O)[C@H](CC(C)C)NC(=O)[C@H](CCC(N)=O)NC(=O)[C@H](CCC(=O)O)NC(=O)[C@@H](NC(=O)[C@H](CCC(=O)O)NC(=O)[C@@H]1CC(=O)NCCCC[C@H](NC(=O)[C@H](CCC(=O)O)NC(=O)[C@H](CCC(=O)O)NC(=O)[C@@H](NC(=O)[C@@H](NC(=O)[C@H](CC(C)C)NC(=O)[C@H](CCC(=O)O)NC(=O)[C@H](CCC(=O)O)NC(=O)[C@H](C)NC(=O)[C@H](CCC(=O)O)NC(C)=O)C(C)C)C(C)C)C(=O)N[C@@H](C(C)C)C(=O)N[C@@H](CC(C)C)C(=O)N[C@@H](CCC(=O)O)C(=O)N1)[C@@H](C)CC)C(=O)N[C@H]1CCCCNC(=O)C[C@@H](C(=O)N[C@@H](CCC(N)=O)C(N)=O)NC(=O)[C@H](CCC(N)=O)NC(=O)[C@H](CC(C)C)NC(=O)[C@H](CC(=O)O)NC1=O, double lactamized peptide; NΔ20 CΔ7; also called double lactam peptide HW30; source: synthetic peptide (Fmoc SPPS, on-resin lactamization, RP-HPLC purified)) [HW30] | – | – | 0.00969 | -30.5 | 1.05 | 44.9 | 63.2
Ac-EAEELVVEEDVLEEEIEQLEERNYALRKEIEDLQKQLEKL-NH2 (truncation NΔ20 CΔ3 of HW1; source: synthetic peptide (Fmoc SPPS, RP-HPLC purified)) [HW4] | – | – | 0.0911 | -45.4 | 0.91 | 45.4 | 64.1
